Patent publication US20220380407A1 (WASHINGTON UNIVERSITY, published 2022)
Read-outs that look alike come from different tables or passages of the source. Positions of bridges follow the written chain, without caps; N, C: chain ends. Non-standard residues stand in square brackets, D forms with d. Primed or numbered codes have the meaning given here. No end group written: not given here. *: point of attachment. X10 = 1‑((2,4-dinitrophenyl)sulfonyl)piperidin‑4‑yl carbamate, O=C(OC1CCN(S(=O)(=O)c2ccc([N+](=O)[O-])cc2[N+](=O)[O-])CC1)*; X9 = 1‑((5-chloro-2-methoxyphenyl)sulfonyl)piperidin‑4‑yl carbamate, COc1ccc(Cl)cc1S(=O)(=O)N1CCC(OC(=O)*)CC1; X11 = 1‑((3-fluorophenyl)sulfonyl)piperidin‑4‑yl carbamate, O=C(OC1CCN(S(=O)(=O)c2cccc(F)c2)CC1)*; X8 = 1‑((4-chlorophenyl)sulfonyl)piperidin‑4‑yl carbamate, O=C(OC1CCN(S(=O)(=O)c2ccc(Cl)cc2)CC1)*; X13 = 1‑((2-fluorophenyl)sulfonyl)piperidin‑4‑yl carbamate, O=C(OC1CCN(S(=O)(=O)c2ccccc2F)CC1)*; X12 = 1‑(mesitylsulfonyl)piperidin‑4‑yl carbamate, Cc1cc(C)c(S(=O)(=O)N2CCC(OC(=O)*)CC2)c(C)c1; X5 = 1‑acetyl‑4‑phenethylpiperidin‑4‑yl carbamate, CC(=O)N1CCC(CCc2ccccc2)(OC(=O)*)CC1; X4 = 1‑(phenylsulfonyl)piperidin‑4‑yl carbamate, O=C(OC1CCN(S(=O)(=O)c2ccccc2)CC1)*; X3 = 4‑benzylpiperidin‑4‑yl carbamate, O=C(OC1(Cc2ccccc2)CCNCC1)*; X1 = 4‑phenylpiperidin‑4‑yl carbamate, O=C(OC1(c2ccccc2)CCNCC1)*; X7 = 1‑acetylpiperidin‑4‑yl carbamate, CC(=O)N1CCC(OC(=O)*)CC1; kbt″ = ketobenzothiazole (C-terminal Arg), c1ccc2sc(*)nc2c1; kbt = C-terminal Arg ketobenzothiazole; Fmoc = O=C(OCC1c2ccccc2-c2ccccc21)*; kt = C-terminal Arg ketothiazole; Cha = N[C@@H](CC1CCCCC1)C(=O)O

Legend:
Assay in all cases: cell-based or functional assay
[1] = biological target: T1, activated hepsin (#4776-SE-010, R&D Systems) (UniProt P05981 45-417, limits assumed)
[2] = biological target: T2, recombinant N-terminal His-tag HGFA serine protease domain (UniProt Q04756 373-655)
T2 sequence (looked up): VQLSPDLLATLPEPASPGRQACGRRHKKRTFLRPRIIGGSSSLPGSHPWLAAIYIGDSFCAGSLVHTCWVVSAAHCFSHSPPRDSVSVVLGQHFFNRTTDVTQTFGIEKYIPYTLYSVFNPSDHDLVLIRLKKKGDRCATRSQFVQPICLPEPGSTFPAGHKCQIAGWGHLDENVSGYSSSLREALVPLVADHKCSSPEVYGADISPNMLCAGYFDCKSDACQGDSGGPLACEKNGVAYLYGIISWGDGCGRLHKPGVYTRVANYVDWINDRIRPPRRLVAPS

[3] = biological target: T3, matriptase (#3946-SE-010, R&D Systems) (UniProt Q9Y5Y6 615-855)
T3 sequence (looked up): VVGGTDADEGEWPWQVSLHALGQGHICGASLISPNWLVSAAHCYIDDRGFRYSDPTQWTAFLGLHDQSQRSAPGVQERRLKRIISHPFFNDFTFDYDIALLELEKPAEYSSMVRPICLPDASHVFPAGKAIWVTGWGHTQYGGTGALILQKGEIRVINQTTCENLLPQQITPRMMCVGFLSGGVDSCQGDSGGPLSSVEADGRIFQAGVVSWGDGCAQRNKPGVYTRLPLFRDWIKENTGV

[4] = biological target: T4, Factor Xa (#1063-SE-010, R&D Systems) (UniProt P00742 41-488, limits assumed)
[5] = biological target: T5, recombinant thrombin (#1473-SE-010, R&D Systems) (UniProt P00734 44-622)
human TMPRSS2 = human TMPRSS2 (human, UniProt O15393 1-492)
[6] = biological target: T1, activated hepsin (#4776-SE-010, R&D …); remark: listed apart in the source
[7] = biological target: T2, recombinant N-terminal His-tag HGFA …; remark: listed apart in the source
[8] = biological target: T3, matriptase (#3946-SE-010, R&D Systems); remark: listed apart in the source
[9] = biological target: T1, activated hepsin (#4776-SE-010, R&D …); remark: listed apart in the source
[10] = biological target: T2, recombinant N-terminal His-tag HGFA …; remark: listed apart in the source
[11] = biological target: T3, matriptase (#3946-SE-010, R&D Systems); remark: listed apart in the source
[12] = biological target: T6, KLK5 (#1108-SE-010, R&D Systems) (UniProt Q9Y337 23-293, limits assumed)
T6 sequence (looked up): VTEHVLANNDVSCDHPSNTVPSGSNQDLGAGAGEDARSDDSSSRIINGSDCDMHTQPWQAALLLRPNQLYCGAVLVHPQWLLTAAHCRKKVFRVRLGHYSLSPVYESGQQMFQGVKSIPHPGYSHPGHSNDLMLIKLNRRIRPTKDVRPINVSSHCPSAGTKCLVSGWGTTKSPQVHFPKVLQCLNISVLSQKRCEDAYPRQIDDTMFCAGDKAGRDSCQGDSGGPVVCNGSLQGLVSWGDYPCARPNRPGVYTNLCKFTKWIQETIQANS

[13] = biological target: T4, Factor Xa (#1063-SE-010, R&D Systems); remark: listed apart in the source
[14] = biological target: T5, recombinant thrombin (#1473-SE-010, R&D …); remark: listed apart in the source

T4 sequence (P00742 41-488 limits assumed): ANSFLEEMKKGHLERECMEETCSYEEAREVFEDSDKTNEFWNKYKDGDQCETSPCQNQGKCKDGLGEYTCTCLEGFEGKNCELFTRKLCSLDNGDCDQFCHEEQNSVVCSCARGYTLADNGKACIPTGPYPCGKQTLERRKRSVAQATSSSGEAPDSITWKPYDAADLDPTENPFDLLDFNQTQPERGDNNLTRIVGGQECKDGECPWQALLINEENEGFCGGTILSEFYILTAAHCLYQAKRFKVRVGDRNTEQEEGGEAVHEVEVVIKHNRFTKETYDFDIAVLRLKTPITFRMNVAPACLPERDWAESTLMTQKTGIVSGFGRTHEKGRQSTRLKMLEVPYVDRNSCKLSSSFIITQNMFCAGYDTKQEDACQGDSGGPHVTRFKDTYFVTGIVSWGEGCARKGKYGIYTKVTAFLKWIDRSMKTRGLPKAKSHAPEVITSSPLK
human TMPRSS2, sequence (O15393 whole entry): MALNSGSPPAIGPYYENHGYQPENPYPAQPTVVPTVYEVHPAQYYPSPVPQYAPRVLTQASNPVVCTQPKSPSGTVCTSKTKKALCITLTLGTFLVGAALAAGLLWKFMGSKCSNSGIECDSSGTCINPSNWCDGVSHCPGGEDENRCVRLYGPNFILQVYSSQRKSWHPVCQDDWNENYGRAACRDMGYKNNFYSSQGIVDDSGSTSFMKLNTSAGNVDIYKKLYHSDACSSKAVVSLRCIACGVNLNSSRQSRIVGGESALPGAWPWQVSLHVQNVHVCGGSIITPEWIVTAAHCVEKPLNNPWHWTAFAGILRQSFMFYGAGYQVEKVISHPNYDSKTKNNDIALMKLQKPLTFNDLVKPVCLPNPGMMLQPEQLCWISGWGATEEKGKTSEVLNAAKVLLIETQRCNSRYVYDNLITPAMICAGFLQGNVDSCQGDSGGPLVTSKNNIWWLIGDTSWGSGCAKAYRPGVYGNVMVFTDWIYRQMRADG
T1 sequence (P05981 45-417 limits assumed): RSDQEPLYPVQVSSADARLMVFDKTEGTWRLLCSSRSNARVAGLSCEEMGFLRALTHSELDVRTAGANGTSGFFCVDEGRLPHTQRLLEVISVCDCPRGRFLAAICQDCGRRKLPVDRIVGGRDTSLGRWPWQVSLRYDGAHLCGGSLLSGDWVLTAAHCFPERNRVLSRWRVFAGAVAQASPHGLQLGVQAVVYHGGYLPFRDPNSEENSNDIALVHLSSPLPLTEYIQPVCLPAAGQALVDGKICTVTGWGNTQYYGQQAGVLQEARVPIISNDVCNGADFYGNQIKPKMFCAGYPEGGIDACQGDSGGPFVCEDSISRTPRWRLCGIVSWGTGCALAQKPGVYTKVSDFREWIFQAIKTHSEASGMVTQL

Ac-GQFR-kbt [MM3122 Ac-GQFR-kbt]
Hepsin (IC50 nM) [1]: 0.194 nM | HGFA (IC50 nM) [2]: 32.5 nM | Matriptase (IC50 nM) [3]: 0.314 nM | Factor Xa* (IC50 nM) [4]: 700 nM | Thrombin* (IC50 nM) [5]: > 20 nM

Ac-DQKR-kbt (lactam 1-3; also: N-terminal acetyl described as 6-acetamido) [Cyclo(DQK)R-kbt, VD3152]
Calu-3 EC50 (human TMPRSS2): 138 nM | Hepsin IC50 [6]: 22 nM | HGFA IC50 [7]: 16100 nM | Matriptase IC50 [8]: 7.7 nM | Hepsin (IC50 nM) [1]: 22.2 nM | HGFA (IC50 nM) [2]: 16100 nM | Matriptase (IC50 nM) [3]: 7.7 nM | Factor Xa* (IC50 nM) [4]: > 20000 nM | Thrombin* (IC50 nM) [5]: > 20000 nM

X13-Leu-Arg-kbt [1-((2-fluorophenyl)sulfonyl)piperidin-4-yl Leu-Arg-kbt carbamate (8g)]
Hepsin IC50 [9]: 70 nM | HGFA IC50 [10]: 18000 nM | Matriptase IC50 [11]: 4500 nM

Ac-LQFR-kbt [MM3131 Ac-LQFR-kbt]
Hepsin (IC50 nM) [1]: 0.247 nM | HGFA (IC50 nM) [2]: 98.2 nM | Matriptase (IC50 nM) [3]: 1.8 nM | Factor Xa* (IC50 nM) [4]: 219 nM | Thrombin* (IC50 nM) [5]: > 20 nM

X8-Leu-Arg-kbt [1-((4-chlorophenyl)sulfonyl)piperidin-4-yl Leu-Arg-kbt carbamate (8i)]
Hepsin IC50 [9]: 60 nM | HGFA IC50 [10]: 9000 nM | Matriptase IC50 [11]: 2400 nM

Ac-MQFR-kbt [MM3130 Ac-MQFR-kbt]
Hepsin (IC50 nM) [1]: 0.135 nM | HGFA (IC50 nM) [2]: 36.5 nM | Matriptase (IC50 nM) [3]: 0.552 nM | Factor Xa* (IC50 nM) [4]: 342 nM | Thrombin* (IC50 nM) [5]: > 20 nM

Leu-Leu-Arg-{kbt-Val-NH2} (also: N-terminal cap inconsistent in filing (H or Ac)) [H-LLR-kbt V-amide ZFH7182]
Calu-3 EC50 (human TMPRSS2): 2060 nM | Hepsin IC50 [6]: 0.01 nM | HGFA IC50 [7]: 44 nM

{2‑phenyl‑1‑(piperidin-4-yl)ethyl carbamate}-Leu-Arg-kbt [2-phenyl-1-(piperidin-4-yl)ethyl Leu-Arg-kbt carbamate (11b)]
Hepsin IC50 [9]: 2 nM | HGFA IC50 [10]: 6000 nM | Matriptase IC50 [11]: 20 nM

Fmoc-Pro-Arg-kbt [FmocPRkbt]
KLK5 IC50 [12]: 3680 nM

X11-Leu-Arg-kbt [1-((3-fluorophenyl)sulfonyl)piperidin-4-yl Leu-Arg-kbt carbamate (8j)]
Hepsin IC50 [9]: 70 nM | HGFA IC50 [10]: > 20000 nM | Matriptase IC50 [11]: 7500 nM

X7-Leu-Arg-kbt [1-acetylpiperidin-4-yl Leu-Arg-kbt carbamate (8e)]
Hepsin IC50 [9]: 20 nM | HGFA IC50 [10]: > 20000 nM | Matriptase IC50 [11]: 640 nM

X1-[Cha]-Arg-{kbt″} [4-phenylpiperidin-4-yl Cha-Arg-kbt carbamate (8d)]
Hepsin IC50 [9]: 90 nM | HGFA IC50 [10]: > 20000 nM | Matriptase IC50 [11]: 2100 nM | Factor Xa IC50 [13]: 9000 nM | Thrombin IC50 [14]: > 20000 nM

Ac-SKLR-kbt [Ac-SKLR kbt, ZFH7053]
KLK5 IC50 [12]: 2120 nM

Ac-SQLR-kt [Ac-SQLR-kt, ZFH6138]
KLK5 IC50 [12]: 3940 nM

X3-Leu-Arg-kbt [4-benzylpiperidin-4-yl Leu-Arg-kbt carbamate (8b)]
Hepsin IC50 [9]: 0.6 nM | HGFA IC50 [10]: 1200 nM | Matriptase IC50 [11]: 30 nM | Factor Xa IC50 [13]: 6500 nM | Thrombin IC50 [14]: > 20000 nM

Ac-PQFR-kbt [MM3123 Ac-PQFR-kbt]
Hepsin (IC50 nM) [1]: 0.136 nM | HGFA (IC50 nM) [2]: 75 nM | Matriptase (IC50 nM) [3]: 0.316 nM | Factor Xa* (IC50 nM) [4]: 199 nM | Thrombin* (IC50 nM) [5]: > 20 nM

X9-Leu-Arg-kbt [1-((5-chloro-2-methoxyphenyl)sulfonyl)piperidin-4-yl Leu-Arg-kbt carbamate (8l)]
Hepsin IC50 [9]: 60 nM | HGFA IC50 [10]: 6300 nM | Matriptase IC50 [11]: 4000 nM

Ac-[dW]-Phe-Arg-kbt [Ac-dWFR-kbt, PK-1-89A1]
Calu-3 EC50 (human TMPRSS2): 32 nM | Hepsin IC50 [6]: 100 nM | HGFA IC50 [7]: 346 nM | Matriptase IC50 [8]: 29 nM

X1-Leu-Arg-kbt
Hepsin IC50 [9]: 5 nM | HGFA IC50 [10]: 780 nM | Matriptase IC50 [11]: 90 nM | Thrombin IC50 [14]: > 20000 nM

Ac-WLFR-kbt [Ac-WLFR-kbt, ZFH7064]
Calu-3 EC50 (human TMPRSS2): 150 nM | Hepsin IC50 [6]: 0.79 nM | HGFA IC50 [7]: 266 nM | Matriptase IC50 [8]: 12 nM

X4-Leu-Arg-kbt [1-(phenylsulfonyl)piperidin-4-yl Leu-Arg-kbt carbamate (8f)]
Hepsin IC50 [9]: 20 nM | HGFA IC50 [10]: 8600 nM | Matriptase IC50 [11]: 810 nM | Factor Xa IC50 [13]: > 20000 nM | Thrombin IC50 [14]: > 20000 nM

Ac-IQFR-kbt [MM3116 Ac-IQFR-kbt]
Hepsin (IC50 nM) [1]: 0.14 nM | HGFA (IC50 nM) [2]: 30.2 nM | Matriptase (IC50 nM) [3]: 0.923 nM | Factor Xa* (IC50 nM) [4]: 792 nM | Thrombin* (IC50 nM) [5]: > 20 nM

X5-Leu-Arg-kbt [1-acetyl-4-phenethylpiperidin-4-yl Leu-Arg-kbt carbamate (8c)]
Hepsin IC50 [9]: 0.5 nM | HGFA IC50 [10]: > 20000 nM | Matriptase IC50 [11]: 70 nM | Factor Xa IC50 [13]: 2000 nM | Thrombin IC50 [14]: 7700 nM

X10-Leu-Arg-kbt [1-((2,4-dinitrophenyl)sulfonyl)piperidin-4-yl Leu-Arg-kbt carbamate (8k)]
Hepsin IC50 [9]: 110 nM | HGFA IC50 [10]: > 20000 nM | Matriptase IC50 [11]: 10000 nM

Ac-Gln-Phe-Arg-kbt [MM3144 Ac-QFR-kbt]
HGFA (IC50 nM) [2]: 13.8 nM | Factor Xa* (IC50 nM) [4]: 1.4 nM | Thrombin* (IC50 nM) [5]: > 20 nM

Ac-KQLR-kbt [Ac-KQLR-kbt, ZFH7006]
Calu-3 EC50 (human TMPRSS2): 78 nM | Hepsin IC50 [6]: 0.17 nM | HGFA IC50 [7]: 60 nM | Matriptase IC50 [8]: 1.1 nM | KLK5 IC50 [12]: 1790 nM

Fmoc-Trp-Arg-kbt [FmocWRkbt]
KLK5 IC50 [12]: 4390 nM

Ac-Leu-Leu-Arg-kt [Ac-LLR-kt, ZFH6201]
Calu-3 EC50 (human TMPRSS2): 349 nM | Hepsin IC50 [6]: 4.6 nM | HGFA IC50 [7]: 506 nM | Matriptase IC50 [8]: 56 nM

Ac-Trp-Phe-Arg-kbt [Ac-WFR-kbt, PK-1-102A1]
KLK5 IC50 [12]: > 20000 nM

B1: Cyclo(DMK)R-kbt, VD3173 (peptide)
peptide: Ac-DMKR-kbt
modifications: lactam 1-3; not fully specified; printed as Cyclo(DMK)R-kbt; also: N-terminal acetyl described as 6-acetamido
Calu-3 EC50 (human TMPRSS2): 119 nM | Hepsin IC50 [6]: 5.9 nM | HGFA IC50 [7]: 3240 nM | Matriptase IC50 [8]: 1 nM | Hepsin (IC50 nM) [1]: 5.9 nM | HGFA (IC50 nM) [2]: 3240 nM | Matriptase (IC50 nM) [3]: 0.98 nM | Factor Xa* (IC50 nM) [4]: 1400 nM | Thrombin* (IC50 nM) [5]: > 20000 nM

X12-Leu-Arg-kbt [1-(mesitylsulfonyl)piperidin-4-yl Leu-Arg-kbt carbamate (8m)]
Hepsin IC50 [9]: 110 nM | HGFA IC50 [10]: 8800 nM | Matriptase IC50 [11]: > 20000 nM
